In patent US20220218785A1 (ALPINE IMMUNE SCIENCES, published 2022):
Substitutions are numbered along the chain they refer to. Names and notes keep the numbering of the source.

T1: human ICOS (human, UniProt Q9Y6W8 21-199)
T1 construct: whole, on cells
T1 sequence (looked up): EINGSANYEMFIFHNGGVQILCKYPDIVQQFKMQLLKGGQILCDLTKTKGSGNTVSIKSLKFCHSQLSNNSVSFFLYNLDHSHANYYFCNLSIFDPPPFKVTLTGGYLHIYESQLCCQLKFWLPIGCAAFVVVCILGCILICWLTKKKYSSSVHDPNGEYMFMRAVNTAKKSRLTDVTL

B1: ICOSL ECD Truncation #7 with N52H/N57Y/Q100R/F172S and F83S, Fc fusion (Fc fusion)
chain: DTQEKEVRAMVGSDVELSCACPEGSRFDLNDVYVYWQTSESKTVVTYHIPQHSSLEYVDSRYRNRALMSPAGMLRGDFSLRLSNVTPQDEQKFHCLVLSRSLGFQEVLSVEVTLHVAANFSVPVVSAPHSPSQDELTFTCTSINGYPRPNVYWINKTDNSLLDQALQNDTVSLNMRGLYDVVSVLRIARTPSVNIGCCIENGGGGSGGGGSEPKSSDKTHTCPPCPAPEAEGAPSVFLFPPKPKDTLMISRTPEVTCVVVDVSHEDPEVKFNWYVDGVEVHNAKTKPREEQYNSTYRVVSVLTVLHQDWLNGKEYKCKVSNKALPAPIEKTISKAKGQPREPQVYTLPPSREEMTKNQVSLTCLVKGFYPSDIAVEWESNGQPENNYKTTPPVLDSDGSFFLYSKLTVDKSRWQQGNVFSCSVMHEALHNHYTQKSLSLSPG
notes: Made in CHO cells; F83S is an additional mutation found later in the clone
B2: ICOSL ECD with N52H/N57Y/Q100R/C198R (Table 18) (Fc fusion, not shown: a dimerising Fc or GST)
chain: DTQEKEVRAMVGSDVELSCACPEGSRFDLNDVYVYWQTSESKTVVTYHIPQHSSLEYVDSRYRNRALMSPAGMLRGDFSLRLFNVTPQDEQKFHCLVLSRSLGFQEVLSVEVTLHVAANFSVPVVSAPHSPSQDELTFTCTSINGYPRPNVYWINKTDNSLLDQALQNDTVFLNMRGLYDVVSVLRIARTPSVNIGCRIENVLLQQNLTVGSQTGNDIGERDKITENPVSTGEKNAAT
notes: Made in CHO cells; May be the same construct as m37
B3: ICOSL ECD Truncation #7 with N52H/N57Y/Q100R/C198R and E90K/E111G (Fc fusion, not shown: a dimerising Fc or GST)
chain: DTQEKEVRAMVGSDVELSCACPEGSRFDLNDVYVYWQTSESKTVVTYHIPQHSSLEYVDSRYRNRALMSPAGMLRGDFSLRLFNVTPQDKQKFHCLVLSRSLGFQEVLSVGVTLHVAANFSVPVVSAPHSPSQDELTFTCTSINGYPRPNVYWINKTDNSLLDQALQNDTVFLNMRGLYDVVSVLRIARTPSVNIGCRIEN
notes: Made in CHO cells
B4: ICOSL ECD Truncation #6 with N52H/N57Y/Q100R/F172S, Fc fusion (Fc fusion)
chain: DTQEKEVRAMVGSDVELSCACPEGSRFDLNDVYVYWQTSESKTVVTYHIPQHSSLEYVDSRYRNRALMSPAGMLRGDFSLRLFNVTPQDEQKFHCLVLSRSLGFQEVLSVEVTLHVAANFSVPVVSAPHSPSQDELTFTCTSINGYPRPNVYWINKTDNSLLDQALQNDTVSLNMRGLYDVVSVLRIARTPSVNIGCCIENVLLGGGGSGGGGSEPKSSDKTHTCPPCPAPEAEGAPSVFLFPPKPKDTLMISRTPEVTCVVVDVSHEDPEVKFNWYVDGVEVHNAKTKPREEQYNSTYRVVSVLTVLHQDWLNGKEYKCKVSNKALPAPIEKTISKAKGQPREPQVYTLPPSREEMTKNQVSLTCLVKGFYPSDIAVEWESNGQPENNYKTTPPVLDSDGSFFLYSKLTVDKSRWQQGNVFSCSVMHEALHNHYTQKSLSLSPG
notes: Made in CHO cells
B5: ICOSL ECD Truncation #6 with N52H/N57Y/Q100R/C198R (Fc fusion, not shown: a dimerising Fc or GST)
chain: DTQEKEVRAMVGSDVELSCACPEGSRFDLNDVYVYWQTSESKTVVTYHIPQHSSLEYVDSRYRNRALMSPAGMLRGDFSLRLFNVTPQDEQKFHCLVLSRSLGFQEVLSVEVTLHVAANFSVPVVSAPHSPSQDELTFTCTSINGYPRPNVYWINKTDNSLLDQALQNDTVFLNMRGLYDVVSVLRIARTPSVNIGCRIENVLL
notes: Made in CHO cells
B6: variant ICOSL ECD-Fc N52H/N57Y/Q100R/F172S, AAA linker, Fc C220S/E233P/L234V/L235A/G236del/S267K (SEQ ID NO: 44) (Fc fusion)
chain: DTQEKEVRAMVGSDVELSCACPEGSRFDLNDVYVYWQTSESKTVVTYHIPQHSSLEYVDSRYRNRALMSPAGMLRGDFSLRLFNVTPQDEQKFHCLVLSRSLGFQEVLSVEVTLHVAANFSVPVVSAPHSPSQDELTFTCTSINGYPRPNVYWINKTDNSLLDQALQNDTVSLNMRGLYDVVSVLRIARTPSVNIGCCIENVLLQQNLTVGSQTGNDIGERDKITENPVSTGEKNAATAAAEPKSSDKTHTCPPCPAPPVAGPSVFLFPPKPKDTLMISRTPEVTCVVVDVKHEDPEVKFNWYVDGVEVHNAKTKPREEQYNSTYRVVSVLTVLHQDWLNGKEYKCKVSNKALPAPIEKTISKAKGQPREPQVYTLPPSREEMTKNQVSLTCLVKGFYPSDIAVEWESNGQPENNYKTTPPVLDSDGSFFLYSKLTVDKSRWQQGNVFSCSVMHEALHNHYTQKSLSLSPGK
notes: Made in 293 cells; Fc or allotypes thereof
B7: variant ICOSL ECD-Fc N52H/N57Y/Q100P, AAA linker, Fc C220S/E233P/L234V/L235A/G236del/S267K (SEQ ID NO: 44) (Fc fusion)
chain: B6 chain with R100P, S172F
notes: as for B6

Experiments:
[1] = molecular target: T2, human CD28 (human, UniProt P10747 19-220); assay: flow cytometry, cells with human CD28; protein from CHO
T2 construct: whole, on cells

[2] = molecular target: T1, human ICOS; assay: flow cytometry, cells with human ICOS; protein from CHO
[3] = molecular target: T3, human CTLA-4 (human, UniProt P16410 36-223); assay: flow cytometry, cells with human CTLA-4; protein from CHO
T3 construct: whole, on cells

[4] = molecular target: T3, human CTLA-4; assay: flow cytometry, Expi293 cells with human CTLA-4
From the text: (§1) Expi293 cells transfected with cognate binding partners, human CD28, ICOS and CTLA4, were used as target cells in binding studies.

[5] = molecular target: T1, human ICOS; assay: flow cytometry, Expi293 cells with human ICOS
Method: Binding studies were carried out on transfected HEK293 cells generated to express the full-length mammalian (human) surface ligands, CD28, ICOS or CTLA-4, using a transient transfection system (Life Technologies, USA). As a control, binding to mock (non-transfected) cells also was assessed. For staining by flow cytometry, 200,000 cells of appropriate transient transfection or negative control (mock) were plated in 96 well round bottom plates, and, then incubated in staining buffer (PBS, phosphate buffered saline; 1% BSA, bovine serum albumin; and 0.1% sodium azide) for 20 minutes to block non-specific binding. Cells were resuspended in staining buffer containing 100 nM to 1 nM variant immunomodulatory protein in 50 μL. Mean Fluorescence Intensity (MFI) was calculated for each transfectant and negative parental line with Cell Quest Pro software (Becton Dickinson, USA) or a Hypercyt flow cytometer (Intellicyte, USA).
as §1

[6] = molecular target: T2, human CD28; assay: flow cytometry, Expi293 cells with human CD28
From the text: as §1

T3 sequence (P16410 36-223): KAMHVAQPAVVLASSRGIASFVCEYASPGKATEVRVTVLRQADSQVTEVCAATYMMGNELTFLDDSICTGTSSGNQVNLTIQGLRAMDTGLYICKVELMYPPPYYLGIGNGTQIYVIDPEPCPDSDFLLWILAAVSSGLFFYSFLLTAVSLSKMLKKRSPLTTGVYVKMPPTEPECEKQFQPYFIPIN

| Binder | MFI (ΔWT) [1] | MFI (ΔWT) [2] | MFI (ΔWT) [3] | MFI [1] | MFI [2] | MFI [3] | MFI (ΔWT) [4] | MFI (ΔWT) [5] | MFI (ΔWT) [6] |
| --- | --- | --- | --- | --- | --- | --- | --- | --- | --- |
| B1 | 51.1 fold vs WT | 1.1 fold vs WT | 27.3 fold vs WT | – | – | – | – | – | – |
| B2 | 34.3 fold vs WT | 1.4 fold vs WT | 17.5 fold vs WT | 59200 MFI | 139000 MFI | 133000 MFI | – | – | – |
| B3 | 22.5 fold vs WT | 0.5 fold vs WT | 11 fold vs WT | 38900 MFI | 54600 MFI | 83700 MFI | – | – | – |
| B4 | 52.8 fold vs WT | 0.9 fold vs WT | 31.6 fold vs WT | – | – | – | – | – | – |
| B5 | 49 fold vs WT | 0.9 fold vs WT | 31.1 fold vs WT | 84600 MFI | 91400 MFI | 236000 MFI | – | – | – |
| B6 | – | – | – | – | – | – | 20.5 fold vs WT | 1.3 fold vs WT | 10.9 fold vs WT |
| B7 | – | – | – | – | – | – | 33.5 fold vs WT | 1.3 fold vs WT | 13.3 fold vs WT |
